Measured values published in article doi:10.1101/2025.04.16.649111, “Nanobinders for Synaptotagmin 1 enable the analysis of synaptic vesicle dynamics in rodent and human models” (bioRxiv, 2025).
Blank lines part the entries; values can stand above or below the binder they belong to.

What was measured:
Details in all cases: one partner purified
[1] = biological target: T1, endogenous Synaptotagmin 1 of mouse brain and mouse neurons (mouse (endogenous in brain and primary …, UniProt P46096)); test: co-IP; immunoprecipitation: GFP-tagged nanobody pre-loaded on GFP Selector beads, incubated 1 h at 4 °C with pre-cleared lysate of WT or Syt1 KO mouse brain; blot with Syt1 cytoplasmic antibody
T1 construct: Synaptotagmin 1, mouse, endogenous whole protein (in brain extract for the immunoprecipitation, on living neurons for the uptake); also called endogenous Syt1; Syt1; source: endogenous, WT mouse brain lysate; endogenous, mouse primary neurons
T1 sequence (P46096 whole entry): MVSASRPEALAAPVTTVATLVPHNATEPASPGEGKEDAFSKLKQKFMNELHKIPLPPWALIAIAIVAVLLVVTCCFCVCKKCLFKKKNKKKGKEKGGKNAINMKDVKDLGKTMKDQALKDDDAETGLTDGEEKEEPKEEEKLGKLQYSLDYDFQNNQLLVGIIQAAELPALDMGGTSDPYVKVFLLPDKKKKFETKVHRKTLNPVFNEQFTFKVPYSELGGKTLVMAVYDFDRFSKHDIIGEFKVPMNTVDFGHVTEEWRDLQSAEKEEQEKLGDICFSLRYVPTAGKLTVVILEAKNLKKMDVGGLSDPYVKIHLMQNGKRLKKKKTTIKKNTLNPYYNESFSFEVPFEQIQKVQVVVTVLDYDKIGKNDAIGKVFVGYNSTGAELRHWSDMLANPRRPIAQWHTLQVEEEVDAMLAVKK

[2] = biological target: T2, endogenous Synaptotagmin 1 of primary hippocampal neurons (rat) (rat (endogenous in hippocampal neurons), UniProt P21707); test: proximity labelling; NbLumSyt1-APEX2 taken up live by primary neurons (30 min with biotin-phenol), 1 mM H2O2 for 30 s; streptavidin bead enrichment, LC-MS/MS; controls NbALFA-APEX2 or no nanobody
T2 construct: Synaptotagmin 1, endogenous in primary hippocampal neurons; the spectra were searched against the Rattus norvegicus proteome (UP000234681) and neurons were in most cases from Wistar pups; also called Syt1; Syt1-lum; source: endogenous, primary hippocampal neurons (living cells)
T2 sequence (P21707 whole entry): as the sequence (P46096 whole entry) above, with R6H counted along it

[3] = biological target: T3, endogenous human Synaptotagmin 1 in human iPSC-derived hypothalamic-like neurons (human, UniProt P21579); test: immunostaining of cells or tissue; live uptake in 80-day old human iPSC-derived hypothalamic neurons: surface pool blocked with 4.85 µM unlabeled nanobody, then 5.5 µM pHluorin-labelled nanobody with 30 mM KCl or 1 µM TTX, 20 min at 37 °C; fixed, anti-GFP and anti-Syt1
T3 construct: Synaptotagmin 1, human, endogenous; also called human Syt1; source: endogenous, human iPSC-derived hypothalamic neurons (living cells)
T3 sequence (P21579 whole entry): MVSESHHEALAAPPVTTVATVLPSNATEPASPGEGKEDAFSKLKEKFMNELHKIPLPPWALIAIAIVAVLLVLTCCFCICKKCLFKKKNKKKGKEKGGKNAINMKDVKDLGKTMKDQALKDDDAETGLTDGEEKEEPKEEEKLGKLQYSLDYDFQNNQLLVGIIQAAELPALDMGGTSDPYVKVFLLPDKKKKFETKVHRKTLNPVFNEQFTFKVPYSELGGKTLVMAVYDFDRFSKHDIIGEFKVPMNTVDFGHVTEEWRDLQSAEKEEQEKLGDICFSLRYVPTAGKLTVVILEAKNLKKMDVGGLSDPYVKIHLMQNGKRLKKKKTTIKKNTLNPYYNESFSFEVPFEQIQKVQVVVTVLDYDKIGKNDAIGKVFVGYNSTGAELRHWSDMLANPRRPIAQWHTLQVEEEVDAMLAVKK

binding result [1]: binds
B1: NbLumSyt1 fused to a GFP-tag (VHH)
VHH: EVQLVESGGGLVQTGGSLRLSCTASGSIGSISVMGWYRQVPGTQYELVAGISRGGSTWYEDSVKGRFTISRDNAKNTLYLQMNSLKPEDTGMYYCAGGDYSDRLGSWGQGTQVTVSS
notes: as the VHH of m1: NbLumSyt1, clone 1F12; PDB 8B8I chain A; Held on GFP Selector beads in the immunoprecipitation; detected with anti-GFP in the uptake assay; also called GFP tagged Nanobody; GFP-tagged nanobody; source: E. coli NEB SHuffle Express T7, purified (Ni-NTA, protease elution, MonoQ)

binding result [2]: binds
B2: NbLumSyt1-APEX2 (VHH)
VHH: EVQLVESGGGLVQTGGSLRLSCTASGSIGSISVMGWYRQVPGTQYELVAGISRGGSTWYEDSVKGRFTISRDNAKNTLYLQMNSLKPEDTGMYYCAGGDYSDRLGSWGQGTQVTVSS
notes: as the VHH of m1: NbLumSyt1, clone 1F12; PDB 8B8I chain A; also called Nb-APEX2

binding result [3]: binds
B3: NbLumSyt1-pHluorin (VHH)
VHH: EVQLVESGGGLVQTGGSLRLSCTASGSIGSISVMGWYRQVPGTQYELVAGISRGGSTWYEDSVKGRFTISRDNAKNTLYLQMNSLKPEDTGMYYCAGGDYSDRLGSWGQGTQVTVSS
notes: as the VHH of m1: NbLumSyt1, clone 1F12; PDB 8B8I chain A; Detected with anti-GFP after fixation in the human neuron uptake; also called pHluorin-labelled Syt1 nanobody; Syt1 pHluorin Nb; source: E. coli NEB SHuffle Express T7, purified (Ni-NTA, protease elution, MonoQ)
